Experimental findings from patent publication US20180201672A1 (ACADEMIA SINICA, published 2018) are described below.

This assay deals with T1, interleukin-17 receptor B (IL-17RB), human, endogenous or ectopic full-length on cells (human, UniProt Q9NRM6 18-502).
T1 construct: In the assays the protein stood on human cancer cell lines or tissue sections; also called native IL-17RB; endogenous IL-17RB
T1 sequence: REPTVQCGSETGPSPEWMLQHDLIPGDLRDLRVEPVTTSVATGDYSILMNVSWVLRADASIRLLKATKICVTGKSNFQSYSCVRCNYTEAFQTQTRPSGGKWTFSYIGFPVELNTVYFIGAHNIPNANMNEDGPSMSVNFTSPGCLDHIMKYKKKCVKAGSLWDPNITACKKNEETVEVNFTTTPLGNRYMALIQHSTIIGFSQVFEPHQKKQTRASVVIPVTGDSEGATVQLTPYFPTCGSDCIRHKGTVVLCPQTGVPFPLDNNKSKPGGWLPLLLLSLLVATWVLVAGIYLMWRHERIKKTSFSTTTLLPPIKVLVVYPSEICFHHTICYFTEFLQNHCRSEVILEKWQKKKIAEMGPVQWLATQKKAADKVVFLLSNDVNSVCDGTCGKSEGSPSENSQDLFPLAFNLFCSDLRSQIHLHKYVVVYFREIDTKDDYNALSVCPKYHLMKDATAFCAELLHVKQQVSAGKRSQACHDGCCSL
Put plainly: FACS on IL-17RB expressing pancreatic cancer cell lines (CFPAC-1 WT and KO, HPAF-II; MCF10A negative control). As to the method: FIG. 9. Specificity and Binding Efficiency of anti-IL17RB chimeric D9 antibody (cD9). A, the specific recognition of mouse and chimeric D9 antibody to IL-17RB was determined by FACS analysis using IL-17RB expression (WT) and IL-17RB knock-out (KO) pancreatic cancer cell line CFPAC-1. The FACS profiling of no antibody (no staining) or secondary antibody only (2nd Ab only) were served as control. B, the recognition efficiency of mouse and chimeric D9 antibody was measured by FACS analysis using IL-17RB expression pancreatic cancer cell lines, CFPAC-1 and HPAF-II. MCF10A with no IL-17RB expression was served as negative control.

B1: chimeric monoclonal anti-IL-17RB antibody cD9 (antibody, V domains shown)
VH: EVQLQQSGPELVKPGASVKISCKTSGYTFTEYTIHWVKQNHGKSLDWIGGINPNNGGTTYNQEFKGKATLTVDKSSSTAYMEFRSLTSEDSAVYYCARSYYGYVDYWGQGTTLTAA
VL: QIVLTQSPAIMSASPGEKVTMTCSASSSIYYIHWYQQKSGTSPKRWIYDTSKLASGVPARFSGSGSGTSYSLTISSMEAEDAATYYCQQWSSNPFTFGSGTKLEIK
notes: also called chimeric D9 antibody; mAb cD9
For the molecule B1, the binding result is on record as “binds”.

B2: mouse monoclonal anti-IL-17RB antibody D9 (antibody, V domains shown)
VH: B1 VH
VL: B1 VL
notes: Mouse monoclonal antibody from a hybridoma, raised against recombinant IL-17RB extracellular domain (amino acids 18-289) made in HEK293 cells; also called mAb D9; mAbD9
As to B2, the binding result is “binds”.
